According to paper PMC3291655, “LEDGF/p75-Independent HIV-1 Replication Demonstrates a Role for HRP-2 and Remains Sensitive to Inhibition by LEDGINs” (PLoS Pathogens, 2012):

Assays:
[1] = biological target: T1, MBP-HRP-2(448-670), maltose binding protein fusion of the C-terminal part of Hepatoma-derived growth factor … (human, UniProt Q7Z4V5-2 448-670); assay: AlphaScreen or HTRF; IN-His6 titrated (2-fold dilutions from 500 to 1.9 nM) against 10 nM MBP fusion; anti-MBP donor beads and Ni2+-chelate acceptor beads; 25 mM Tris-HCl pH 7.4, 150 mM NaCl, 1 mM MgCl2, 0.1% Tween-20, 0.1% BSA; 1 h at 4°C, then 1 h at RT with beads; apparent KD, one-site specific binding with ligand depletion; details: both partners purified
T1 construct: Hepatoma-derived growth factor related protein 2 (HRP-2), human, C-terminal part aa 448-670, which holds the IBD (aa 470-593); the range called the C-terminal end stops at 670, which fits the 670-residue isoform; amplified from p3xFlagHRP-2 and ligated into pMAL-c2E; source: E. coli, purified (amylose resin)
T1 sequence (looked up): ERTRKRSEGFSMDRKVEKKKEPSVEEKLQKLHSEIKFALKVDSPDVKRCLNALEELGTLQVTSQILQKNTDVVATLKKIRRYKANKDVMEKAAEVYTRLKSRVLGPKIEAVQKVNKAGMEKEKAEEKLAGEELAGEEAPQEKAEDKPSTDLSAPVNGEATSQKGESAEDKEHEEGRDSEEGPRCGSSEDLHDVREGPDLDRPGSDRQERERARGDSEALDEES

[2] = biological target: T2, MBP-LEDGF/p75(325-530), maltose binding protein fusion of the C-terminal end of LEDGF/p75 (human, UniProt O75475-1 325-530); assay: as above; details: both partners purified
T2 construct: also called MBP-LEDGF_(325–530); LEDGF_(325–530); source: E. coli BL21(DE3), purified (amylose resin)
T2 sequence (looked up): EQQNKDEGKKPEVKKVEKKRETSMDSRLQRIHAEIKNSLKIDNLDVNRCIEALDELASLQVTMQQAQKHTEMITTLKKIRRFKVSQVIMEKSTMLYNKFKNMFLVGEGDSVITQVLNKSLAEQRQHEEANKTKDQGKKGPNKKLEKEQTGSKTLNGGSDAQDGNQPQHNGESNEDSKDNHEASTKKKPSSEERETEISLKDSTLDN

B1: HIV-1 integrase with a C-terminal His6 tag (enzyme)
chain: FLDGIDKAQEEHEKYHSNWRAMASDFNLPPVVAKEIVASCDKCQLKGEAMHGQVDCSPGIWQLDCTHLEGKVILVAVHVASGYIEAEVIPAETGQETAYFLLKLAGRWPVKTVHTDNGSNFTSTTVKAACWWAGIKQEFGIPYNPQSQGVIESMNKELKKIIGQVRDQAEHLKTAVQMAVFIHNFKRKGGIGGYSAGERIVDIIATDIQTKELQKQITKIQNFRVYYRDSRDPVWKGPAKLLWKGEGAVVIQDNSDIKVVPRRKAKIIRDYGKQMAGDDCVASRQDED
Kd [1]: 89.8 nM | Kd [2]: 6.6 nM
